We go through two molecules from paper PMC3249508 (Journal of Molecular Biology, 2011).

B2: recombinant full-length human DDX1 (enzyme)
chain: MAAFSEMGVMPEIAQAVEEMDWLLPTDIQAESIPLILGGGDVLMAAETGSGKTGAFSIPVIQIVYETLKDQQEGKKGKTTIKTGASVLNKWQMNPYDRGSAFAIGSDGLCCQSREVKEWHGCRATKGLMKGKHYYEVSCHDQGLCRVGWSTMQASLDLGTDKFGFGFGGTGKKSHNKQFDNYGEEFTMHDTIGCYLDIDKGHVKFSKNGKDLGLAFEIPPHMKNQALFPACVLKNAELKFNFGEEEFKFPPKDGFVALSKAPDGYIVKSQHSGNAQVTQTKFLPNAPKALIVEPSRELAEQTLNNIKQFKKYIDNPKLRELLIIGGVAARDQLSVLENGVDIVVGTPGRLDDLVSTGKLNLSQVRFLVLDEADGLLSQGYSDFINRMHNQIPQVTSDGKRLQVIVCSATLHSFDVKKLSEKIMHFPTWVDLKGEDSVPDTVHHVVVPVNPKTDRLWERLGKSHIRTDDVHAKDNTRPGANSPEMWSEAIKILKGEYAVRAIKEHKMDQAIIFCRTKIDCDNLEQYFIQQGGGPDKKGHQFSCVCLHGDRKPHERKQNLERFKKGDVRFLICTDVAARGIDIHGVPYVINVTLPDEKQNYVHRIGRVGRAERMGLAISLVATEKEKVWYHVCSSRGKGCYNTRLKEDGGCTIWYNEMQLLSEIEEHLNCTISQVEPDIKVPVDEFDGKVTYGQKRAAGGGSYKGHVDILAPTVQELAALEKEAQTSFLHLGYLPNQLFRTF

Data set [1] addresses B2. Briefly: fluorescence polarisation. (In general: Polarisation of emitted light reports the rotation of a fluorescent probe.)
A further data set concerns the target T1, DDX1 (1–428) (human, UniProt Q92499 1-428).
T1 sequence: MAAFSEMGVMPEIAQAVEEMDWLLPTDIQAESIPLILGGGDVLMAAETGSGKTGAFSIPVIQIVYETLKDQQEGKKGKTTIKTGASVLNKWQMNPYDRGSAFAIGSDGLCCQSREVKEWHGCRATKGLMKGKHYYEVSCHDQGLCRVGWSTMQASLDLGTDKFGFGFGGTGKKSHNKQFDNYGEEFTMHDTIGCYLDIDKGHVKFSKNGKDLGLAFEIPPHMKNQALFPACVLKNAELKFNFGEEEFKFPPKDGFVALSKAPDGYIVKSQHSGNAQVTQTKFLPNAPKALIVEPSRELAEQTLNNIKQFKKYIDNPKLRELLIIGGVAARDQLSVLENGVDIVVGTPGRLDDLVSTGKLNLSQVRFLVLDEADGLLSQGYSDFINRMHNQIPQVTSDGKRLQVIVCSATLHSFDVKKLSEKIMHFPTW
Briefly: fluorescence polarisation.

For the next data set, the target named is bovine serum albumin (bovine, UniProt P02769 25-607). Briefly: fluorescence polarisation.
Sequence of bovine serum albumin (P02769 25-607): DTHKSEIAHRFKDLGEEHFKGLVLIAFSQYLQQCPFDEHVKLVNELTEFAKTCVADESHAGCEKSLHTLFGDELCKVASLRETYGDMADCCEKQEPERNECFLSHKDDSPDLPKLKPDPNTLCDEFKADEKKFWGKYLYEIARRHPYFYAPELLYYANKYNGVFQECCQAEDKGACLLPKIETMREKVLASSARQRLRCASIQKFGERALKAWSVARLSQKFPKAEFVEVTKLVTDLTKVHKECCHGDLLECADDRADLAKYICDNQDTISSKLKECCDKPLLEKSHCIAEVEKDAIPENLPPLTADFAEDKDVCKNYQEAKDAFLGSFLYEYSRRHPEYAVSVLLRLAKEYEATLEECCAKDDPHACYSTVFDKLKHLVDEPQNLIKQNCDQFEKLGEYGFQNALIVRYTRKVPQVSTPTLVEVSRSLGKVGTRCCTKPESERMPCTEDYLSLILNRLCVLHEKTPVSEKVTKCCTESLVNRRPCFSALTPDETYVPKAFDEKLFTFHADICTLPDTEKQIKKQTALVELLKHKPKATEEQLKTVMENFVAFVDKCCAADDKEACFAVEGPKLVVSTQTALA
The target of data set [2] is B2. Briefly: fluorescence polarisation. The source holds these as a separate data set.
Data set [3] addresses B2. Briefly: fluorescence polarisation. This is another data set of the same source.
The data set “SEC” deals with the molecule itself. Briefly: SEC.

Like-named read-outs stand apart in the source and are kept apart here.

B1: Alexa-488-labeled HIV-1 Rev protein (natural protein)
chain: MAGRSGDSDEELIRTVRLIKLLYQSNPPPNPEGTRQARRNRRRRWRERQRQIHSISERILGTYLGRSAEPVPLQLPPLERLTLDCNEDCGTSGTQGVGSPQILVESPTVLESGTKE
modifications: Alexa-488 label (site not stated)
As for B1, the Kd (in general, the equilibrium constant for the complex coming apart) is 0.036 µM in data set [1]; 0.043 µM in the data set with DDX1 (1–428); greater than 0.5 µM with bovine serum albumin; 0.0147 µM in data set [2]; 0.053 µM in data set [3].
In the case of B2, the binding result in the data set “SEC” was “binds”.
